We go through one molecule from US20100095387A1, “METHODS AND REAGENTS FOR SCREENING NEW DRUGS AND FOR TREATING ION PUMP ASSOCIATED DISORDERS AND DISEASES” (priority 2005, published 2010).

Entries after “also recorded” stand apart in the source; their conditions may differ.

In test [1] the test system is cardiac myocytes. In words: Spontaneous contraction frequency of cultured cardiac myocytes. It is filed as cell-based, mouse. The procedure: FIG. 17. Cardiac myocyte contraction is agrin dependent. Cardiac myocytes were prepared from hearts of individual embryos produced by heterozygous pairings. The genotype of cultures was determined by PCR analysis of tissue samples from each embryo. Myocytes were maintained in 199 medium containing 10% FCS as described (Mitcheson et al., 1998). At 5 days in culture, the frequency of spontaneous contractions was determined by counting contractions in myocytes from 5 random fields at 300× magnification for 30 seconds. Contraction frequency is dependent on Agrn gene dosage such that Agrn−/−>Agrn+/−>Agrn+/+. Addition of C-Ag208 to the growth medium rescues the Agrn mutant phenotype whereas C-Ag15 increased the contraction frequency of wild type myocytes to a level similar to Agrn−/− cells. Bars show mean±SEM for a minimum of 2 independent platings from 3 embryos, except for Agrn+/−treated with C-Ag208, which was a single plating of 2 embryos. All data were collected blind with respect to genotype and agrin treatment. *** p≦0.001. ANOVA with Bonferroni post-hoc pair-wise comparison.
Quantitative studies confirmed and extended these observations by showing that the frequency of myocyte contraction is dependent on agrin gene dose: Agrn−/− myocyte contraction frequency is about 2-fold higher and Agrn+/− 1.5-fold higher than Agrn+/+ myocytes (FIG. 17). To learn whether the effect of the Agrn mutation on myocyte contraction is a direct result of the loss of agrin expression the effects of growing the cells in media supplemented with C-Ag208, an active agrin fragment, or C-Ag15, the agrin antagonist was next examined.

For test [2], the system named is cortical neurons. In words: c-fos induction, Fos in situ enzyme-linked immunoassay in cortical cultures. It is filed as cell-based, mouse. The following applies: C-AgΔ20 at 50 pM or 5 nM; C-Ag15 up to fivefold above saturation for C-Ag20z0/8. On the procedure: (§1) Mouse cortical cultures were prepared from newborn or 1-d-old ICR strain mice (Harlan) as described previously (Hilgenberg et al., 1999). For the first 24 h after plating, cells were maintained in neural basal medium (NBM) plus B27 supplements (Invitrogen), and in nonneuronal cell-conditioned NBM (cNBM) plus B27 thereafter, at 37° C. in humidified 5% CO2 atmosphere. To further reduce proliferation of nonneuronal cells, cultures on glass coverslips used for histology were treated with 5 μM 5-fluoro-2-deoxyuridine (Sigma-Aldrich) 3-4 d after plating. Hippocampal and cerebellar cultures were prepared in a similar manner. Experiments were performed on 10-14-d-old cultures. Agrin-deficient neuron cultures were prepared from cortices of embryonic d 18-19 fetuses resulting from matings between mice heterozygous for a mutation in the agrin gene (Gautam et al., 1996). Cultures were prepared and genotyped as described previously (Li et al., 1999), and were maintained as above.
Fos expression in cortical cultures was measured by in situ enzyme-linked immunoassay (Hilgenberg et al., 1999). In brief, 11-14-d-old neuronal cultures were treated for 10 min with agrin or other agent diluted in NBM or PBS, then washed in cNBM and returned to the incubator for 2 h. […] The level of Fos expression was determined by monitoring conversion of p-nitrophenyl phosphate to a soluble yellow reaction product at 405 nm.

In test [3] the test system is cultured cortical neurons. Briefly: Glutamate excitotoxic injury of cultured cortical neurons, LDH in growth medium. The following applies: 10 minutes glutamate with C-Ag15; preliminary data. It is filed as cell-based. On the procedure: FIG. 15. C-Ag15 is neuroprotective for excitotoxic injury. Cultured cortical eurons were treated for 10 minutes with the excitatory neurotransmitter glutamate in the presence of the indicated concentration of C-Ag15 and degree of neuronal injury assessed by monitoring the level of LDH in the growth medium. Data are expressed as a percentage of the LDH in sister cultures treated with glutamate alone. The neuroprotective effect of C-Ag15 is dose-dependent.

Test [4] has as its system agrin-deficient neurons. In words: Rescue of glutamate-induced Fos expression in agrin-deficient neuron cultures. In kind it is cell-based, mouse. The procedure:
FIG. 6 is a graph showing that the 20-kD COOH-terminal region of agrin is the minimal fragment sufficient to rescue an agrin-deficient phenotype. (A) 10-d-old wild-type (filled bars) or agrin-deficient (open bars) cultures were grown for 2 d in media supplemented to 5 nM with the indicated agrin fragment. Cultures were challenged for 5 min with 100 μM glutamate as described previously (Hilgenberg et al., 2002), and the levels of Fos expression were determined. Data were normalized to levels of glutamate-induced Fos expression in mocktreated wild-type cultures. Compared with mock, glutamate responses of homozygous agrin-deficient neurons were rescued to near wildtype levels by either the long C-Ag95z8/0 or short C-Ag20z8/0 fragments (***, P≦0.0005; **, P≦0.002; *, P≦0.02; paired t test). (B) To test the ability of C-Ag15 to antagonize agrin action, 10-d-old agrin-deficient neurons were maintained for 2 d in the presence of 5 nM C-Ag95z0 alone or in combination with 10 nM C-Ag15, and neuronal responses to glutamate were determined as above. […]
Fos expression in cortical cultures was measured by in situ enzyme-linked immunoassay (Hilgenberg et al., 1999). […] The level of Fos expression was determined by monitoring conversion of p-nitrophenyl phosphate to a soluble yellow reaction product at 405 nm.

For test [5], the system named is layer V neurons in acute cortical slices. Briefly: Whole cell current clamp of layer V neurons in acute cortical slices. It is filed as cell-based, mouse.
Test [6] relates to hippocampal neurons. In words: Fos expression in hippocampal neurons. The following applies: 1 nM C-Ag15 with 50 pM C-Ag95z8. In kind it is cell-based, mouse. The procedure:
as §1
Fos expression in cortical cultures was measured by in situ enzyme-linked immunoassay (Hilgenberg et al., 1999). In brief, 11-14-d-old neuronal cultures were treated for 10 min with agrin or other agent diluted in NBM or PBS, then washed in cNBM and returned to the incubator for 2 h. […] The level of Fos expression was determined by monitoring conversion of p-nitrophenyl phosphate to a soluble yellow reaction product at 405 nm. […]

The target of test [7] is α3Na+/K+-ATPase (Mus musculus, UniProt Q6PIC6). In words: Na+ imaging (SBFI-AM) of cultured cortical cells. In kind it is cell-based.

B1: C-Ag15: 15-kD COOH-terminal fragment of agrin created by deleting 37 amino acids from the NH2 terminus of C-Ag20, SEQ. ID NO. 3 (protein)
chain: MDPWIGKAAERADYMALAIVDGHLQLSYDLASQPVVLRSTVKVNTNRWLRVRAHREHREGSLQVGNEAPVTSSSPLGATQLDTDGALWLGGLQKLPVGQPLPKAYGTGFVGCLRNVVGHRQLHLLEDAVTKPELRPCPTLNSKLGPEQKLISEEDLNSAVDHHHHHH
modifications: Synthetically produced sequence
As to B1, in test [1] (Agrn+/+ and Agrn+/− myocytes grown in fragment), the contraction frequency result was “significantly increased”. For the same molecule, the contraction frequency entry in test [1] (Agrn−/− cells grown in fragment) was “no effect”. The “effect of fragment alone on Fos expression” value in test [2] is listed as “no effect”. The “neuronal injury, LDH in growth medium” value in test [3] is listed as “neuroprotective; also recorded: dose-dependent”. Moreover, in test [4] (10 nM C-Ag15 with 5 nM C-Ag95z0 in growth medium), the “rescue by C-Ag95z0 blocked” value is 54%. In test [4] (up to 10 nM, wild-type or heterozygous agrin-deficient neurons), the “effect on glutamate-induced expression of c-fos” value is listed as “no effect”. For the same molecule, in test [5] (in kainic acid), the “time to repolarization after addition” value is at most 10 min. Also, in test [5] (kainic acid 0.5 μM + C-Ag15), the membrane potential is −66.3±1.8 mV. Further, the action potential frequency in test [5] (kainic acid plus C-Ag15) stood at 0.01±0.005 Hz. Besides, the “effect on response to C-Ag200” value in test [5] (slices) is reported as “blocked”. Also, the spontaneous action potentials result in test [5] (two spontaneously active neurons) is recorded as “reversibly inhibited”. Besides, the “effect on C-Ag95z8-induced Fos expression” value in test [6] was “completely inhibited”. Moreover, in test [7], the “effect on Na+ increase induced by active agrin fragments” value is recorded as “blocked”, the “effect on ouabain-induced increase in neuronal Na+” value was “blocked; also recorded: significantly reduced” and the “neuronal intracellular Na+” value is “no significant effect”.
